# Results published in patent US20230295259A1 (Protagonist Therapeutics, Inc., priority 2020, published 2023).
# Starred links: 1 amine or outer side, 2 acyl side, 3 side chain; linkers in the order of their positions; H or OH if unused. Positions of bridges follow the written chain, without caps; N, C: chain ends. Non-standard residues stand in square brackets, D forms with d. Groups on a side chain read outwards from the residue. *: point of attachment. Glu(OMe) = COC(=O)CC[C@H](N[*:1])C(=O)[*:2]; C18 diacid = O=C(O)CCCCCCCCCCCCCCCCC(=O)*; Dip = N[C@H](C(=O)O)C(c1ccccc1)c1ccccc1; β3hF = N[C@H](CC(=O)O)Cc1ccccc1; 4Amb = NCc1ccc(C(=O)O)cc1; Isovaleryl = CC(C)CC(=O)*; Dap = NC[C@H](N)C(=O)O; AEEA = NCCOCCOCC(=O)O; Ahx = NCCCCCC(=O)O
# B1: Seq. No. 520 (peptide)
# peptide: XXTHXPCIXXXC
# modifications: [Isovaleric Acid]-[Glu(OMe)]-T-H-[Dpa]-P-C-I-[Lys(PEG12_Dap_C18_Diacid)]-[bhPhe]-[(D)Lys]-C-NH2
# B2: Seq. No. 521 (peptide)
# peptide: XXTHXPCIXXXC
# modifications: [Isovaleric Acid]-[Glu(OMe)]-T-H-[Dpa]-P-C-I-[Lys(1PEG2_1PEG2_Dap_C18_Diacid)]-[bhPhe]-[(D)Lys(Ac)]-C-NH2
# B3: Seq. No. 522 (peptide)
# peptide: XXTHXPCIXXXC
# modifications: [Isovaleric Acid]-[Glu(OMe)]-T-H-[Dpa]-P-C-I-[Lys(1PEG2_1PEG2_Dap_C18_Diacid)]-[Igl]-[(D)Lys]-C-NH2
# B4: Seq. No. 525 (peptide)
# peptide: XETHXPCIXXXXC
# modifications: [Isovaleric Acid]-E-T-H-[Dpa]-P-C-I-[(D)Lys]-[bhPhe]-[Lys(DMG_N_2ae_Palm)]-[(D)Lys]-C-NH2
# B5: Seq. No. 526 (peptide)
# peptide: XXTHXPCIXXXXC
# modifications: [Isovaleric Acid]-[Glu(OMe)]-T-H-[Dpa]-P-C-I-[(D)Lys]-[bhPhe]-[Lys(DMG_N_2ae_Palm)]-[(D)Lys]-C-NH2
# B6: Seq. No. 527 (peptide)
# peptide: XETHXPCIXXXXC
# modifications: [Isovaleric Acid]-E-T-H-[Dpa]-P-C-I-[(D)Lys]-[bhPhe]-[Lys(Ahx_DMG_N_2ae_Palm)]-[(D)Lys]-C-NH2
# B7: Seq. No. 528 (peptide)
# peptide: XXTHXPCIXXXXC
# modifications: [Isovaleric Acid]-[Glu(OMe)]-T-H-[Dpa]-P-C-I-[(D)Lys]-[bhPhe]-[Lys(Ahx_DMG_N_2ae_Palm)]-[(D)Lys]-C-NH2
# B8: Seq. No. 530 (peptide)
# peptide: XXTHXPCIXXXC
# modifications: [Isovaleric Acid]-[Glu(OMe)]-T-H-[Dpa]-P-C-I-[Lys(PEG12_DMG_N_2ae_Palm)]-[bhPhe]-[(D)Lys]-C-NH2
# B9: Seq. No. 532 (peptide)
# peptide: XXTHXPCIXXXC
# modifications: [Isovaleric Acid]-[Glu(OMe)]-T-H-[Dpa]-P-C-I-[Lys(Ahx_DMG_N_2ae_Palm)]-[bhPhe]-[(D)Lys]-C-NH2
# B10: Seq. No. 533 (peptide)
# peptide: XXTHXPCIXXXC
# modifications: [Isovaleric Acid]-[IsoGlu]-T-H-[Dpa]-P-C-I-[Lys(1PEG2_1PEG2_Ahx_C18_Diacid)]-[bhPhe]-[(D)Lys(PEG11_OMe)]-C-NH2
# B11: Seq. No. 537 (peptide)
# peptide: XXTHXPCIXXXC
# modifications: [Isovaleric Acid]-[(D)Arg]-T-H-[Dpa]-P-C-I-[Lys(1PEG2_1PEG2_Dap_C18_Diacid)]-[bhPhe]-[(D)Lys]-C-NH2
# B12: Seq. No. 540 (peptide)
# peptide: XXTHXPCIXXXC
# modifications: [Isovaleric Acid]-[(D)Glu]-T-H-[Dpa]-P-C-I-[Lys(1PEG2_1PEG2_Ahx_C18_Diacid)]-[bhPhe]-[(D)Lys(PEG11_OMe)]-C-NH2
# B13: Seq. No. 541 (peptide)
# peptide: XETHXPCIXXXXC
# modifications: [Isovaleric Acid]-E-T-H-[Dpa]-P-C-I-[(D)Lys]-[bhPhe]-[N-MeLys(Ahx_Palm)]-[(D)Lys(Carnitine)]-C-NH2
# B14: Seq. No. 542 (peptide)
# peptide: XETHXPCIXXXC
# modifications: [Isovaleric Acid]-E-T-H-[Dpa]-P-C-I-[N-MeLys(Ahx_Palm)]-[bhPhe]-[(D)Lys(Carnitine)]-C-NH2
# B15: Seq. No. 543 (peptide)
# peptide: XETHXPCIXXXC
# modifications: [Isovaleric Acid]-E-T-H-[Dpa]-P-C-I-[Lys(1PEG2_1PEG2_IsoGlu_C18_Diacid)]-[bhPhe]-[(D)Lys(Carnitine)]-C-NH2
# B16: Seq. No. 544 (peptide)
# peptide: XETHXPCIXXXC
# modifications: [Isovaleric Acid]-E-T-H-[Dpa]-P-C-I-[Lys(PEG2_1PEG2_DMG_N_2ae_C18_Diacid)]-[bhPhe]-[(D)Lys]-C-NH2
# B17: Seq. No. 545 (peptide)
# peptide: XXTHXPCIXXXC
# modifications: [Isovaleric Acid]-[Glu(OMe)]-T-H-[Dpa]-P-C-I-[Lys(PEG2_1PEG2_DMG_N_2ae_C18_Diacid)]-[bhPhe]-[(D)Lys]-C-NH2
# B18: Seq. No. 546 (peptide)
# peptide: XEXHXPCIXXXC
# modifications: [Isovaleric Acid]-E-[Dab]-H-[Dpa]-P-C-I-[Lys(1PEG2_1PEG2_Ahx_C18_Diacid)]-[bhPhe]-[(D)Lys]-C-NH2
# B19: Seq. No. 547 (peptide)
# peptide: XEXHXPCIXXXC
# modifications: not fully specified; [Isovaleric Acid]-E-[Dap]-H-[Dpa]-P-C-I-[Lys(1PEG2_1PEG2_Ahx_C18_Diacid)]-[bhPhe]-[(D)Lys]-C-NH2
# B20: Seq. No. 548 (peptide)
# peptide: XEXHXPCIXXXXC
# modifications: not fully specified; [Isovaleric Acid]-E-[Dab]-H-[Dpa]-P-C-I-[(D)Lys]-[bhPhe]-[Lys(Ahx_Palm)]-[(D)Lys]-C-NH2
# B21: Seq. No. 549 (peptide)
# peptide: XEXHXPCIXXXXC
# modifications: not fully specified; [Isovaleric Acid]-E-[Dap]-H-[Dpa]-P-C-I-[(D)Lys]-[bhPhe]-[Lys(Ahx_Palm)]-[(D)Lys]-C-NH2
# B22: Seq. No. 551 (peptide)
# peptide: XEXHXPCIXXXXC
# modifications: not fully specified; [Isovaleric Acid]-E-[Lys(Acrylamide)]-H-[Dpa]-P-C-I-[(D)Lys]-[bhPhe]-[Lys(Ahx_Palm)]-[(D)Lys]-C-NH2
# B23: Seq. No. 552 (peptide)
# peptide: XETXXPCIXXXXC
# modifications: not fully specified; [Isovaleric Acid]-E-T-[Lys(Acrylamide)]-[Dpa]-P-C-I-[(D)Lys]-[bhPhe]-[Lys(Ahx_Palm)]-[(D)Lys]-C-NH2
# Molecular target: T1, human ferroportin (SLC40A1) fused in frame with GFP, stably expressed in HEK293 cells (human, UniProt Q9NP59 1-571)
# T1 sequence (looked up): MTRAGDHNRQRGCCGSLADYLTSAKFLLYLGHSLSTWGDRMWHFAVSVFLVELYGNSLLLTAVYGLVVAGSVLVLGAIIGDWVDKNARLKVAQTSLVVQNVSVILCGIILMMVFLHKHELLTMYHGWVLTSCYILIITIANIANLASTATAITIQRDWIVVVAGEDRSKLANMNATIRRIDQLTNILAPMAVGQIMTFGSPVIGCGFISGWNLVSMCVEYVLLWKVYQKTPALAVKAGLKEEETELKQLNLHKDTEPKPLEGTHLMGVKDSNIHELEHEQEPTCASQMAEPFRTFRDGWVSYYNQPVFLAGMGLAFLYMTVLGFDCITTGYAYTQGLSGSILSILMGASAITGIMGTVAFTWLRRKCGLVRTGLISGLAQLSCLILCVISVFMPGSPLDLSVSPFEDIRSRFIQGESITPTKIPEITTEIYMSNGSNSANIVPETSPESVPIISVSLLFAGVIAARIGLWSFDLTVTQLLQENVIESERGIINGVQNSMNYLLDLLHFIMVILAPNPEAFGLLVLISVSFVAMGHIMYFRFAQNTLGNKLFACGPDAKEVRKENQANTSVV
# Assay: cell-based or functional assay
row,Binder,IC50: FPN internalisation
1,B1,19.9 nM
2,B2,10.1 nM
3,B3,19.2 nM
4,B4,7.98 nM
5,B5,28.1 nM
6,B6,31 nM
7,B7,32.4 nM
8,B8,37.4 nM
9,B9,7.14 nM
10,B10,203 nM
11,Isovaleryl-[Glu(OMe)]TH[Dip]PCIK([AEEA-AEEA-Dap-C18 diacid])[β3hF][dR]C-NH2 (disulfide 6-11 (inferred)) [Seq. No. 535],21 nM
12,Isovaleryl-[Glu(OMe)]TH[Dip]PC[dR]K([AEEA-AEEA-Dap-C18 diacid])[β3hF][dK]C-NH2 (disulfide 6-11 (inferred)) [Seq. No. 536],94.1 nM
13,B11,33.8 nM
14,B12,142 nM
15,B13,26 nM
16,B14,9.02 nM
17,B15,13.2 nM
18,B16,9.26 nM
19,B17,14.6 nM
20,B18,53.6 nM
21,B19,24.8 nM
22,B20,46.3 nM
23,B21,50.8 nM
24,Isovaleryl-ETH[Dip]PC[4Amb]K([AEEA-AEEA-Ahx-C18 diacid])[β3hF][dK]C-NH2 (not fully specified (bridges); cysteine pairing not given here) [Seq. No. 550],13.1 nM
25,B22,90 nM
26,B23,48 nM
